According to PMC10672205, “Towards a High-Affinity Peptidomimetic Targeting Proliferating Cell Nuclear Antigen from Aspergillus fumigatus” (Journal of Fungi, 2023):
Where two headings read alike, the source gives them in different places. Ends that are not written are not given here. Peptide text beside a SMILES is read from it.

B1: p21µ-afumRFC peptide (peptide)
peptide: KRRMPTDIRNFFHSKR-NH2
notes: also called p21μafumRFC; p21µRFC; source: synthetic peptide, Genscript Biotech (>95%, HPLC)

Columns and labels:
[1] = molecular target: afumPCNA (A. fumigatus PCNA) (Aspergillus fumigatus, UniProt A0A229Y5V5); assay: biochemical; type: binding
Procedure: Surface plasmon resonance (SPR) experiments were performed as previously described. The running buffer used for ligand attachment and analyte-binding experiments was a 10 mM HEPES buffer with 150 mM NaCl, 3 mM EDTA, and 0.05% Tween-20, adjusted to pH 7.4 with 2 M NaOH. A GE CM5 (series S) sensor chip was primed with the running buffer and preconditioned with successive injections (2 × 50 s, 30 μL/min) of 50 mM NaOH, 10 mM HCl, 0.1% SDS, 0.85% H3PO4, and 50 mM glycine pH 9.5, respectively. The surface was then activated with an injection of 0.2 M 1-ethyl-3-(3-dimethylaminopropyl)carbodiimide (EDC) and 50 mM N-hydroxysuccinimide (NHS) (600 s, 10 μL/min). A. fumigatus PCNA (5 μL, 12 mg/mL) was diluted into the running buffer (245 μL). Upon the preactivation of the surface, the protein was further diluted to a final concentration of 25 μg/mL in 10 mM NaAc (~pH 4.6). This solution was immediately injected over the target flow cell (10 μL/min) to immobilize ~1500 RU. Both the target and reference flow cells were then blocked with 1.0 M ethanolamine at pH 8.5 (600 s, 10 μL/min). The chip was left to stabilize before sample injections commenced.
Peptide stock solutions for use in SPR experiments were prepared in MilliQ water. The peptide stock concentration was determined via 205 nm absorbance with NanoDrop2000. The ε205 for each peptide was calculated using an online calculator (http://nickanthis.com/tools/a205.html, accessed on 22 August 2022 [24]); however, additional glycine residue was added to each peptide sequence to account for the terminal amide of the peptides synthesized in-house. The peptide stock solution’s concentration was then calculated using Beer’s Law.
A 2-fold serial dilution was performed for each peptide, with 8 samples injected sequentially from the lowest to highest concentrations; they were preceded by a buffer-only blank injection. After each injection, the surface was regenerated with 2 M NaCl (2 × 30 s, 25 μL/min). All data were analyzed using the GE Biosystems Biacore S200 Evaluation Software, Version 1.0 (Build: 20).

[2] = molecular target: Aspergillus fumigatus proliferating cell nuclear antigen (Aspergillus fumigatus); assay: SPR
[3] = molecular target: T1, human proliferating cell nuclear antigen (human, UniProt P12004 1-259); assay: SPR; peptide against human PCNA, tested in triplicate; immobilisation of human PCNA not described here (SPR as previously described, ref. 18); details: both partners purified
T1 construct: also called hPCNA; human PCNA

[4] = afumPCNA Binding Affinity KD (nM) ± SD (nM)
[5] = read-out: afumPCNA Binding Affinity KD (nM) ± SD, SPR steady-state affinity, afumPCNA immobilised on CM5 chip (~1500 RU), 10 mM HEPES, 150 mM NaCl, 3 mM EDTA, 0.05% Tween-20, pH 7.4, 8 x 2-fold dilutions, contact 40 s, dissociation 30 s, KD ± SD
[6] = afumPCNA Binding Affinity KD (nM) ± KD SD (nM)

T1 sequence (P12004 1-259): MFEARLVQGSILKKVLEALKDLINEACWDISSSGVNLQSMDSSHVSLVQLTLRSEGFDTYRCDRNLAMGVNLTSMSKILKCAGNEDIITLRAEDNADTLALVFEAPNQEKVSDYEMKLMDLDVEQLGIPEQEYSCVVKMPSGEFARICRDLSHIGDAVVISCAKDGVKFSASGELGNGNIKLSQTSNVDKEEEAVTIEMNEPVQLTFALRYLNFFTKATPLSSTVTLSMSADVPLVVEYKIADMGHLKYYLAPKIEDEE

Molecule	Kd [2] [nM]	also measured
CSCC[C@H](NC(=O)[C@H](CO)NC(=O)[C@@H](NC(=O)[C@H](CCC(N)=O)NC(=O)[C@H](CCCNC(=N)N)NC(=O)[C@H](CCCNC(=N)N)NC(=O)[C@@H](N)CCCCN)[C@@H](C)O)C(=O)N[C@H](C(=O)N[C@@H](CC(=O)O)C(=O)N[C@@H](Cc1ccc(O)cc1)C(=O)N[C@@H](Cc1ccccc1)C(=O)N[C@@H](Cc1c[nH]cn1)C(=O)N[C@@H](CO)C(=O)N[C@@H](CCCCN)C(=O)N[C@@H](CCCNC(=N)N)C(N)=O)[C@@H](C)O [p21μ-FY150151YF] (H-KRRQTSMTDYFHSKR-NH2)		Kd [1, 4]: 96.4 ± 19.6 nM
CSCC[C@H](NC(=O)[C@H](CCCNC(=N)N)NC(=O)[C@H](CCCNC(=N)N)NC(=O)[C@@H](N)CCCCN)C(=O)N[C@H](C(=O)N[C@@H](CO)C(=O)N[C@@H](CCSC)C(=O)N[C@H](C(=O)N[C@@H](CC(=O)O)C(=O)N[C@@H](Cc1ccccc1)C(=O)N[C@@H](Cc1ccc(O)cc1)C(=O)N[C@@H](Cc1c[nH]cn1)C(=O)N[C@@H](CO)C(=O)N[C@@H](CCCCN)C(=O)N[C@@H](CCCNC(=N)N)C(N)=O)[C@@H](C)O)[C@@H](C)O [p21μ-Q144M] (H-KRRMTSMTDFYHSKR-NH2)		Kd [1, 5]: 41400 nM
CC[C@H](C)[C@H](NC(=O)[C@H](CCCNC(=N)N)NC(=O)[C@@H](NC(=O)[C@H](CCC(N)=O)NC(=O)[C@H](CCCNC(=N)N)NC(=O)[C@H](CCCNC(=N)N)NC(=O)[C@@H](N)CCCCN)[C@@H](C)O)C(=O)N[C@H](C(=O)N[C@@H](CCC(=O)O)C(=O)N[C@@H](Cc1ccc(O)cc1)C(=O)N[C@@H](Cc1ccccc1)C(=O)N[C@@H](Cc1c[nH]cn1)C(=O)N[C@@H](CO)C(=O)N[C@@H](CCCCN)C(=O)N[C@@H](CCCNC(=N)N)C(N)=O)[C@@H](C)O [p21μ-RD2] (H-KRRQTRITEYFHSKR-NH2)		Kd ([1]; Affinity KD (nM) (Table S1)): 20.3 nM
CSCC[C@H](NC(=O)[C@H](CO)NC(=O)[C@H](CC(=O)O)NC(=O)[C@H](CCC(N)=O)NC(=O)[C@H](CCCNC(=N)N)NC(=O)[C@H](CCCNC(=N)N)NC(=O)[C@@H](N)CCCCN)C(=O)N[C@H](C(=O)N[C@@H](CC(=O)O)C(=O)N[C@@H](Cc1ccccc1)C(=O)N[C@@H](Cc1ccc(O)cc1)C(=O)N[C@@H](Cc1c[nH]cn1)C(=O)N[C@@H](CO)C(=O)N[C@@H](CCCCN)C(=O)N[C@@H](CCCNC(=N)N)C(N)=O)[C@@H](C)O [p21μ-T145D] (H-KRRQDSMTDFYHSKR-NH2)		Kd ([1]; Affinity KD (nM) (Table S1), SPR steady-state affinity against AfumPCNA, 8x 1 in 2 dilutions from Top Conc, On/Off 40/30 s): 4110 nM
CSCC[C@H](NC(=O)[C@H](CO)NC(=O)[C@H](CCCCN)NC(=O)[C@H](CCC(N)=O)NC(=O)[C@H](CCCNC(=N)N)NC(=O)[C@H](CCCNC(=N)N)NC(=O)[C@@H](N)CCCCN)C(=O)N[C@H](C(=O)N[C@@H](CC(=O)O)C(=O)N[C@@H](Cc1ccccc1)C(=O)N[C@@H](Cc1ccc(O)cc1)C(=O)N[C@@H](Cc1c[nH]cn1)C(=O)N[C@@H](CO)C(=O)N[C@@H](CCCCN)C(=O)N[C@@H](CCCNC(=N)N)C(N)=O)[C@@H](C)O [p21μ-T145K] (H-KRRQKSMTDFYHSKR-NH2)		Kd [1, 5]: 10000 nM
CSCC[C@H](NC(=O)[C@H](CO)NC(=O)[C@@H](NC(=O)[C@H](CCC(N)=O)NC(=O)[C@H](CCCNC(=N)N)NC(=O)[C@H](CCCNC(=N)N)NC(=O)[C@@H](N)CCCCN)[C@@H](C)O)C(=O)N[C@H](C(=O)N[C@@H](CC(=O)O)C(=O)N[C@@H](Cc1ccccc1)C(=O)N[C@@H](Cc1ccc(O)cc1)C(=O)N[C@@H](Cc1c[nH]cn1)C(=O)N[C@@H](CO)C(=O)N[C@@H](CCCCN)C(=O)N[C@@H](CCCNC(=N)N)C(N)=O)[C@@H](C)O [p21μ]		Kd [1, 4]: 265 ± 5.9 nM
CC[C@H](C)[C@H](NC(=O)[C@H](CO)NC(=O)[C@H](CCCNC(=N)N)NC(=O)[C@@H](NC(=O)[C@H](CCCNC(=N)N)NC(=O)[C@H](CCC(N)=O)NC(=O)[C@H](CCCNC(=N)N)NC(=O)[C@H](CCCNC(=N)N)NC(=O)[C@@H](N)CCCCN)C(C)C)C(=O)N[C@@H](C)C(=O)N[C@@H](CO)C(=O)N[C@@H](Cc1ccccc1)C(=O)N[C@@H](Cc1ccccc1)C(=O)N[C@@H](Cc1c[nH]cn1)C(=O)N[C@@H](CO)C(=O)N[C@@H](CCCCN)C(=O)N[C@@H](CCCNC(=N)N)C(N)=O [p21μafumDNALIG] (H-KRRQRVRSIASFFHSKR-NH2)		Kd [1, 6]: 458 ± 118 nM
CC(C)C[C@H](NC(=O)[C@H](CCCNC(=N)N)NC(=O)[C@H](CO)NC(=O)[C@H](CCC(N)=O)NC(=O)[C@H](CCCNC(=N)N)NC(=O)[C@H](CCCNC(=N)N)NC(=O)[C@@H](N)CCCCN)C(=O)N[C@@H](CCC(=O)O)C(=O)NCC(=O)N[C@@H](Cc1ccccc1)C(=O)N[C@@H](Cc1ccccc1)C(=O)N[C@@H](Cc1c[nH]cn1)C(=O)N[C@@H](CO)C(=O)N[C@@H](CCCCN)C(=O)N[C@@H](CCCNC(=N)N)C(N)=O [p21μafumFEN1] (H-KRRQSRLEGFFHSKR-NH2)		Kd [1, 6]: 713 ± 56.9 nM
CC[C@H](C)[C@H](NC(=O)[C@H](CC(=O)O)NC(=O)[C@@H](NC(=O)[C@@H]1CCCN1C(=O)[C@H](CCSC)NC(=O)[C@H](CCCNC(=N)N)NC(=O)[C@H](CCCNC(=N)N)NC(=O)[C@@H](N)CCCCN)[C@@H](C)O)C(=O)N[C@@H](CCCNC(=N)N)C(=O)N[C@@H](CC(N)=O)C(=O)N[C@@H](Cc1ccccc1)C(=O)N[C@@H](Cc1ccccc1)C(=O)N[C@@H](Cc1c[nH]cn1)C(=O)N[C@@H](CO)C(=O)N[C@@H](CCCCN)C(=O)N[C@@H](CCCNC(=N)N)C(N)=O [p21μafumRFC] (H-KRRMPTDIRNFFHSKR-NH2)		Kd [1, 6]: 94.8 ± 8.76 nM
p21µ peptide (141-155)	265	
p21µ-FY150151YF peptide	96.4	
KRRQTRITEYFHSKR-NH2 [p21µ-RD2 peptide]	20.3	
KRRQTSLTDFYHSKR-NH2 [p21µ-M147L peptide]	382	
KRRQTSMTDFFHSKR-NH2 [p21µ-Y151F peptide]	167	
B1		Kd [3]: 295 nM
KRRQDSMTDFYHSKR-NH2 [p21µ-T145D peptide]	4100	
KRRQTSITDFYHSKR-NH2 [p21µ-M147I peptide]	37.1	
KRRQKSMTDFYHSKR-NH2 [p21µ-T145K peptide]	10000	
KRRQTSMTEFYHSKR-NH2 [p21µ-D149E peptide]	401	
KRRMTSMTDFYHSKR-NH2 [p21µ-Q144M peptide]	41400	
